Reference: patent US20090252727A1 (Eli Lilly, published 2009)

Assays:
Assay in all cases: competition with [125I]glucagon, SPA, membranes of 293HEK cells expressing the receptor
mouse glucagon receptor = biological target: T1, mouse glucagon receptor (mouse, UniProt Q61606 28-485)
T1 construct: Cloned receptor expressed in 293HEK cells; also called murine GluR; mouse GlucR
T1 chain: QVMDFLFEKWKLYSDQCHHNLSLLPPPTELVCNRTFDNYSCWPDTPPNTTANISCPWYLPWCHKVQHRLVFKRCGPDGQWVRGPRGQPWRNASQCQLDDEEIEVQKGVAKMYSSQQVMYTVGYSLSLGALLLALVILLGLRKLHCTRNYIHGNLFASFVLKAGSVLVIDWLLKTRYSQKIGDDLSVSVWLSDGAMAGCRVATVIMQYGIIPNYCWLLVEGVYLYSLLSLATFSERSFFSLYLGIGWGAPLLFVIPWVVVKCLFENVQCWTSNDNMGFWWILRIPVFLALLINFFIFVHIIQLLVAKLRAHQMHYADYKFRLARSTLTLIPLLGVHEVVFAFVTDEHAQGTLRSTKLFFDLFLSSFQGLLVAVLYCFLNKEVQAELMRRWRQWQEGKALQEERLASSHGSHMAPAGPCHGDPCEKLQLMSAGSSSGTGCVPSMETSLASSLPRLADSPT

rat glucagon receptor = biological target: T2, rat glucagon receptor (rat, UniProt P30082 28-485)
T2 construct: Cloned receptor expressed in 293HEK cells; also called rat GluR; rat GlucR

human glucagon receptor = biological target: T3, human glucagon receptor (human, UniProt P47871 27-477)
T3 construct: Cloned receptor expressed in 293HEK cells; also called human GluR; human GlucR

[1] = biological target: T4, cynomologous monkey glucagon receptor (cynomologous monkey, UniProt P47871 27-477 (human entry))
T4 construct: Cloned receptor expressed in 293HEK cells; also called cyno GluR; cyno GlucR
T4 chain: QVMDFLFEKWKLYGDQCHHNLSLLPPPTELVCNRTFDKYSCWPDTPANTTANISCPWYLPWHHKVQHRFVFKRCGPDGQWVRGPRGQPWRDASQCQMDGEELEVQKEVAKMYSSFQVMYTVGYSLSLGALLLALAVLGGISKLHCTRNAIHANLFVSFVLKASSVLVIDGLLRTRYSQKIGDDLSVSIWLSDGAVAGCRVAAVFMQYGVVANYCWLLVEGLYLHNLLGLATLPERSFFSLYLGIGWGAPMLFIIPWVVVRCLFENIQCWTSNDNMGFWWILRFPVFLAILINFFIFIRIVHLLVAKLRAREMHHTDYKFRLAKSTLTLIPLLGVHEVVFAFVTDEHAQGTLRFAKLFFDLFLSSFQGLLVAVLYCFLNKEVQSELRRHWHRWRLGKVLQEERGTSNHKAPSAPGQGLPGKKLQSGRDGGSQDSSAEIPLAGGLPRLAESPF

Measured: Ki

B1: Fab fragment of antibody example 1 (Fab, V domains shown)
VH: QVQLQESGPGLVKPSETLSLTCTVSGDDITSGYWDWIRQPPGKGLEWIGYISYSGSTYYSPSLKSRVTISVDTSKNQFSLKLSSVTAADTAVYYCARPPGYYGFGPYALDYWGQGTLVTVSS
VL: DIQMTQSPSSLSASVGDRVTITCSASSSVSYMHWYQQKPGKAPKLLIYTTSNLAHGVPSRFSGSGSGTDFTLTISSLQPEDFATYYCQWRSTLPPTFGGGTKVEIKR
notes: Expressed in E. coli; Fab = VL+CL and VH+CH1 (Fc absent); also called Fab of Ab1; not shown: His tag
< 50 nM: all assays above

B2: Antibody of example 7 (Ab7) (antibody, human IgG4 S228P, kappa, F234A L235A, V domains shown)
VH: QVQLQESGPGLVKPSETLSLTCTVSGDDITSGYHEWIRQPPGKGLEWIGYISYSGSTSYSPSLKSRVTISVDTSKNQFSLKLSSVTAADTAVYYCARPPAYYGFGPYALDYWGQGTLVTVSS
VL: DIQMTQSPSSLSASVGDRVTITCSASSSVSYIHWYQQKPGKAPKLLIYTTSYLAHGVPSRFSGSGSGTDFTLTISSLQPEDFATYYCQQRSTLPPTFGGGTKVEIKR
notes: Humanized full antibody with kappa light chain and modified human IgG4 Fc
< 50 nM: all assays above

B3: Fab fragment of antibody example 2 (Fab, V domains shown)
VH: QVQLQESGPGLVKPSETLSLTCTVSGDDITSGYWNWIRQPPGKGLEWIGYISYSGSTYYIPSLKSRVTISVDTSKNQFSLKLSSVTAADTAVYYCARPPGYYGFGPYAMDYWGQGTLVTVSS
VL: DIQMTQSPSSLSASVGDRVTITCSYSSSVSYMHWYQQKPGKAPKLLIYTTSNLAHGVPSRFSGSGSGTDFTLTISSLQPEDFATYYCQQRSTLPPTFGGGTKVEIKR
notes: Expressed in E. coli; Fab = VL+CL and VH+CH1 (Fc absent); also called Fab of Ab2; not shown: His tag
< 50 nM: all assays above

B4: Antibody of example 5 (Ab5) (antibody, human IgG4 S228P, kappa, F234A L235A, V domains shown)
VH: QVQLQESGPGLVKPSETLSLTCTVSGDDITSGYHDWIRQPPGKGLEWIGYISYSGSTQYSPSLKSRVTISVDTSKNQFSLKLSSVTAADTAVYYCARPPGYYGFGPYALDYWGQGTLVTVSS
VL: DIQMTQSPSSLSASVGDRVTITCSASSSVSYIHWYQQKPGKAPKLLIYTTSYLAHGVPSRFSGSGSGTDFTLTISSLQPEDFATYYCQQRSTLPPTFGGGTKVEIKR
notes: as for B2
< 50 nM: all assays above

B5: Antibody of example 3 (Ab3) (antibody, human IgG4 S228P, kappa, F234A L235A, V domains shown)
VH: QVQLQESGPGLVKPSETLSLTCTVSGDDITSGYWDWIRQPPGKGLEWIGYISYSGSTYYSPSLKSRVTISVDTSKNQFSLKLSSVTAADTAVYYCARPPGYYGFGPYALDYWGQGTLVTVSS
VL: DIQMTQSPSSLSASVGDRVTITCSASSSVSYIHWYQQKPGKAPKLLIYTTSYLAHGVPSRFSGSGSGTDFTLTISSLQPEDFATYYCLQRSTLPPTFGGGTKVEIKR
notes: as for B2
< 50 nM: all assays above

B6: Antibody of example 2 (Ab2) (antibody, human IgG4 S228P, kappa, F234A L235A, V domains shown)
VH: QVQLQESGPGLVKPSETLSLTCTVSGDDITSGYWNWIRQPPGKGLEWIGYISYSGSTYYIPSLKSRVTISVDTSKNQFSLKLSSVTAADTAVYYCARPPGYYGFGPYAMDYWGQGTLVTVSS
VL: DIQMTQSPSSLSASVGDRVTITCSYSSSVSYMHWYQQKPGKAPKLLIYTTSNLAHGVPSRFSGSGSGTDFTLTISSLQPEDFATYYCQQRSTLPPTFGGGTKVEIKR
notes: as for B2
< 50 nM: all assays above

B7: Fab fragment of antibody example 6 (Fab, V domains shown)
VH: QVQLQESGPGLVKPSETLSLTCTVSGDDITSGYHDWIRQPPGKGLEWIGYISYSGSTYYSPSLKSRVTISVDTSKNQFSLKLSSVTAADTAVYYCARPPAYYGFGPYALDYWGQGTLVTVSS
VL: DIQMTQSPSSLSASVGDRVTITCSASSSVSYIHWYQQKPGKAPKLLIYTTSYLAHGVPSRFSGSGSGTDFTLTISSLQPEDFATYYCQQRSTLPPTFGGGTKVEIKR
notes: Expressed in E. coli; Fab = VL+CL and VH+CH1 (Fc absent); also called Fab of Ab6; not shown: His tag
< 50 nM: all assays above

B8: Antibody of example 1 (Ab1) (antibody, human IgG4 S228P, kappa, F234A L235A, V domains shown)
VH: QVQLQESGPGLVKPSETLSLTCTVSGDDITSGYWDWIRQPPGKGLEWIGYISYSGSTYYSPSLKSRVTISVDTSKNQFSLKLSSVTAADTAVYYCARPPGYYGFGPYALDYWGQGTLVTVSS
VL: DIQMTQSPSSLSASVGDRVTITCSASSSVSYMHWYQQKPGKAPKLLIYTTSNLAHGVPSRFSGSGSGTDFTLTISSLQPEDFATYYCQWRSTLPPTFGGGTKVEIKR
notes: as for B2
< 50 nM: all assays above

B9: Fab fragment of antibody example 3 (Fab, V domains shown)
VH: QVQLQESGPGLVKPSETLSLTCTVSGDDITSGYWDWIRQPPGKGLEWIGYISYSGSTYYSPSLKSRVTISVDTSKNQFSLKLSSVTAADTAVYYCARPPGYYGFGPYALDYWGQGTLVTVSS
VL: DIQMTQSPSSLSASVGDRVTITCSASSSVSYIHWYQQKPGKAPKLLIYTTSYLAHGVPSRFSGSGSGTDFTLTISSLQPEDFATYYCLQRSTLPPTFGGGTKVEIKR
notes: Expressed in E. coli; Fab = VL+CL and VH+CH1 (Fc absent); also called Fab of Ab3; not shown: His tag
< 50 nM: all assays above

B10: Fab fragment of antibody example 5 (Fab, V domains shown)
VH: QVQLQESGPGLVKPSETLSLTCTVSGDDITSGYHDWIRQPPGKGLEWIGYISYSGSTQYSPSLKSRVTISVDTSKNQFSLKLSSVTAADTAVYYCARPPGYYGFGPYALDYWGQGTLVTVSS
VL: DIQMTQSPSSLSASVGDRVTITCSASSSVSYIHWYQQKPGKAPKLLIYTTSYLAHGVPSRFSGSGSGTDFTLTISSLQPEDFATYYCQQRSTLPPTFGGGTKVEIKR
notes: Expressed in E. coli; Fab = VL+CL and VH+CH1 (Fc absent); also called Fab of Ab5; not shown: His tag
< 50 nM: all assays above

B11: Fab fragment of antibody example 7 (Fab, V domains shown)
VH: QVQLQESGPGLVKPSETLSLTCTVSGDDITSGYHEWIRQPPGKGLEWIGYISYSGSTSYSPSLKSRVTISVDTSKNQFSLKLSSVTAADTAVYYCARPPAYYGFGPYALDYWGQGTLVTVSS
VL: DIQMTQSPSSLSASVGDRVTITCSASSSVSYIHWYQQKPGKAPKLLIYTTSYLAHGVPSRFSGSGSGTDFTLTISSLQPEDFATYYCQQRSTLPPTFGGGTKVEIKR
notes: Expressed in E. coli; Fab = VL+CL and VH+CH1 (Fc absent); also called Fab of Ab7; not shown: His tag
< 50 nM: all assays above

B12: Antibody of example 6 (Ab6) (antibody, human IgG4 S228P, kappa, F234A L235A, V domains shown)
VH: QVQLQESGPGLVKPSETLSLTCTVSGDDITSGYHDWIRQPPGKGLEWIGYISYSGSTYYSPSLKSRVTISVDTSKNQFSLKLSSVTAADTAVYYCARPPAYYGFGPYALDYWGQGTLVTVSS
VL: DIQMTQSPSSLSASVGDRVTITCSASSSVSYIHWYQQKPGKAPKLLIYTTSYLAHGVPSRFSGSGSGTDFTLTISSLQPEDFATYYCQQRSTLPPTFGGGTKVEIKR
notes: as for B2
< 50 nM: all assays above
